Assay results reported in IntAct's records for PubMed 21441902.

B1: mRNA export factor GLE1 (Saccharomyces cerevisiae), Q12315 (parent)
chain: MRFVFDEVFNSDTDSPEFEETCSTTSSTSSQCPTPEPSPAIKLPSFTKVGTKKLVNESVVILDPALENALRDLNLQSKLIPINEPIVAASSIIVPHSTNMPLPRASHSSLLDNAKNSNATAPLLEAIEESFQRKMQNLVLANQKEIQSIRENKRRVEEQRKRKEEEERKRKEAEEKAKREQELLRQKKDEEERKRKEAEAKLAQQKQEEERKKIEEQNEKERQLKKEHEAKLLQQKDKLGKAVTNFDKISKMFWHYKDKIAQIKQDIVLPIKKADVNVRNLLSRHKRKINPKFGQLTNSNQQLFKIQNELTQLINDTKGDSLAYHWILNFIAKAVVHQAETEVRVKPESALPLGKLTLYLLVQFPELQELFMARLVKKCPFVIGFTCEIDTEKGRQNMGWKRNNENKWEDNTSYDERMGGILSLFAIITRLQLPQEFITTTSHPFPIALSWHILARICNTPLNLITNTHFVILGSWWDAAAVQFLQAYGNQASKLLILIGEELTSRMAEKKYVGAARLRILLEAWQNNNMESFPEMSP
partner: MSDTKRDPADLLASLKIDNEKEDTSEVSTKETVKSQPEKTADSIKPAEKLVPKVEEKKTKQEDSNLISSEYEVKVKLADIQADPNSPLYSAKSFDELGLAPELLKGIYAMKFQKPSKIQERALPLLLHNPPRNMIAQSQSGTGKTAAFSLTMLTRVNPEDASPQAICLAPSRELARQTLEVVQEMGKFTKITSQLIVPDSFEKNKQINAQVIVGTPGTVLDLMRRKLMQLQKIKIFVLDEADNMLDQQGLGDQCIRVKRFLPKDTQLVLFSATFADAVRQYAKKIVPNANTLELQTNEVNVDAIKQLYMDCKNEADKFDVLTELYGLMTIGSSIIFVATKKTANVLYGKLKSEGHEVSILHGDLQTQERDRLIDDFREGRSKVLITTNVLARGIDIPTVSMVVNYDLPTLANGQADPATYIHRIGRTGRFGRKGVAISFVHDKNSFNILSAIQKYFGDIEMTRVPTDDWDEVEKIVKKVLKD
B2: ATP-dependent RNA helicase DBP5 (Saccharomyces cerevisiae), P20449 (parent)
chain: B1 partner
partner: B1 chain

Variants of: B1
Settings: with dbp5_yeast DBP5, P20449

Row | effect of a mutation on the interaction | Variant
1 | disrupting interaction | MRFVFDEVFNSDTDSPEFEETCSTTSSTSSQCPTPEPSPAIKLPSFTKVGTKKLVNESVVILDPALENALRDLNLQSKLIPINEPIVAASSIIVPHSTNMPLPRASHSSLLDNAKNSNATAPLLEAIEESFQRKMQNLVLANQKEIQSIRENKRRVEEQRKRKEEEERKRKEAEEKAKREQELLRQKKDEEERKRKEAEAKLAQQKQEEERKKIEEQNEKERQLKKEHEAKLLQQKDKLGKAVTNFDKISKMFWHYKDKIAQIKQDIVLPIKKADVNVRNLLSRHKRKINPKFGQLTNSNQQLFKIQNELTQLINDTKGDSLAYHWILNFIAKAVVHQAETEVRVKPESALPLGKLTLYLLVQFPELQELFMARLVKKCPFVIGFTCEIDTEKGRQNMGWKRNNENKWEDNTSYDERMGGILSLFAIITRLQLPQEFITTTSHPFPIALSWHILARICNTPLNLITNTHFVILGSWWDAAAVQFLQAYGNQASKLLILIGEELTSRMAEKKYDGADRLRDLLEAWQNNNMESFPEMSP [V513D;A516D;I520D]

Variants of: B2
Settings: with gle1_yeast GLE1, Q12315

Row | effect of a mutation on the interaction | Variant
2 | disrupting interaction | MSDTKRDPADLLASLKIDNEKEDTSEVSTKETVKSQPEKTADSIKPAEKLVPKVEEKKTKQEDSNLISSEYEVKVKLADIQADPNSPLYSAKSFDELGLAPELLKGIYAMKFQKPSKIQERALPLLLHNPPRNMIAQSQSGTGKTAAFSLTMLTRVNPEDASPQAICLAPSRELARQTLEVVQEMGKFTKITSQLIVPDSFEKNKQINAQVIVGTPGTVLDLMRRKLMQLQKIKIFVLDEADNMLDQQGLGDQCIRVKRFLPKDTQLVLFSATFADAVRQYAKKIVPNANTLELQTNEVNVDAIKQLYMDCKNEADKFDVLTELYGVMTIGSSIIFVATKKTANVLYGKLKSEGHEVSILHGDLQTQERDRLIDDFREGRSKVLITTNVLARGIDIPTVSMVVNYDLPTLANGQADPATYIHRIGRTGRFGRKGVAISFVHDKNSFNILSAIQKYFGDIEMTRVPTDDWDEVEKIVAKVLAD [L327V;K477A;K481A]
